Experimental findings from patent US20240016892A1 (SHATTUCK LABS, published 2024) are described below.

For orientation: EC50 (read off the curve) means the concentration that produces a half-maximal response. What is called EC50 is the midpoint of the concentration-response curve.

One assay has as its target T1, murine recombinant HVEM (mouse, UniProt Q80WM9 39-206).
T1 construct: also called mouse HVEM
T1 sequence (looked up): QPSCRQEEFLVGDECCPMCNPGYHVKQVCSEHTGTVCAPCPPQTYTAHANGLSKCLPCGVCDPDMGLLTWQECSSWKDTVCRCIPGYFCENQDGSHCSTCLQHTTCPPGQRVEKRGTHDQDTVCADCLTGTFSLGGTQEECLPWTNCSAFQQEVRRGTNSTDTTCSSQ
The assay is described as follows: ELISA on recombinant murine targets. A general note: In an ELISA, binding on a coated surface is turned into a signal by an enzyme label.

Another assay has as its target T2, CHOK1/mLTβR (mouse, UniProt P50284).
T2 construct: expressed on the surface of stably transfected CHO-K1 cells; also called cell surface mouse LTβR on CHO-K1/mLTβR cells
The assay is described as follows: flow cytometry on CHOK1/mLTβR cells.

In another assay the target is T3, anti-H&L.
T3 construct: also called capture antibody of the Fc ELISA panel
The assay is described as follows: ELISA: capture anti-H&L; detection anti-Fc-HRP.

In another assay the target is T4, murine recombinant LTβR (mouse, UniProt P50284 31-223).
T4 construct: also called mouse LTβR; printed LOUR
T4 sequence (P50284 31-223): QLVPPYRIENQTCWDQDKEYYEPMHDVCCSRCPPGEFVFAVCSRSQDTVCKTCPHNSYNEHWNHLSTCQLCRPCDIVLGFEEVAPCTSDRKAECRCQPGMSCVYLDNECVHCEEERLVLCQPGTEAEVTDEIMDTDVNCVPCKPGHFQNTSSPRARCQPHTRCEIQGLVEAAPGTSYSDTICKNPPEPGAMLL
The assay is described as follows: ELISA: capture mLTβR-His; detection anti-mLIGHT-Bio.

The target of a further assay is T5, murine recombinant PVR (mouse).
T5 construct: also called mouse PVR
The assay is described as follows: ELISA: capture mCD115/PVR (so in the source); detection anti-Fc-HRP.

Another assay concerns the target T6, mouse 4-1BB-His (mouse, UniProt P20334 24-187).
T6 construct: not shown: His tag
T6 sequence (looked up): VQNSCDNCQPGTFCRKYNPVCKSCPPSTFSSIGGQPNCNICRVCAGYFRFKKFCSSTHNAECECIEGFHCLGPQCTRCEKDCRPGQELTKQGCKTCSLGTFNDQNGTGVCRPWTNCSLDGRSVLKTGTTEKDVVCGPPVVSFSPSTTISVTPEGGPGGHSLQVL
The assay is described as follows: MSD: coat m41BB-His (Acro); detection anti-mouse Sulfo (MSD). How it is done: Mouse 4-1BB-His was coated on plates and increasing amounts of the mSIRPα-Fc-4-1BBL, or mSIRPα-Fc-CD40L chimeric proteins were added to the plates for capture by the plate-bound mouse 4-1BB-His. The mSIRPα-Fc-CD40L chimeric protein was used as a negative control for binding to mouse 4-1BB. Binding of the chimeric proteins to 4-1BB-His was detected using an anti-mouse-SULFO-TAG antibody. Binding was assayed using an electrochemiluminescence (ECL) readout.

The next assay has as its target T7, mouse CD47-His (mouse, UniProt Q61735 19-140, limits assumed).
T7 construct: not shown: His tag
T7 sequence (looked up): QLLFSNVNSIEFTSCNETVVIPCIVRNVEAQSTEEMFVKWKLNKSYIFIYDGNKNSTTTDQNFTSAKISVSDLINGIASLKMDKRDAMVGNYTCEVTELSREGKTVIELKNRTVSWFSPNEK
The assay is described as follows: MSD: coat mCD47-His (Acro); detection anti-mouse Sulfo (MSD). Here is the method: Mouse CD47-His was coated on plates and increasing amounts of the mSIRPα-Fc-4-1BBL or mSIRPα-Fc-CD40L chimeric proteins were added to the plates for capture by the plate-bound mouse CD47-His. The mSIRPα-Fc-CD40L chimeric protein was used as a positive control for binding to mouse CD47. Binding of the chimeric proteins to CD47-His was detected using an anti-mouse SULFO-TAG antibody. Binding was assayed using an electrochemiluminescence (ECL) readout.

The next assay has as its target T8, mouse CD47-Fc (mouse, UniProt Q61735 19-140, limits assumed).
T8 construct: not shown: Fc; not described
T8 sequence (looked up): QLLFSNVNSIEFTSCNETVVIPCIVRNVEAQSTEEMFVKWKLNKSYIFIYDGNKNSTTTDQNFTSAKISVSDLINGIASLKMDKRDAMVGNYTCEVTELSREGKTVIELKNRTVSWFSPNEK
The assay is described as follows: MSD dual-binding sandwich: coat mCD47-Fc (Acro); detect m41BB-His (Acro); anti-His Biotin + Streptavidin Sulfo. Here is the method:
To understand whether the mouse SIRPα-Fc-4-1BBL chimeric protein can contemporaneously bind to mouse 4-1BB and CD47, mouse CD47-Fc was coated on plates and increasing amounts of the mSIRPα-Fc-4-1BBL, or PD-1-Fc-4-1BBL chimeric proteins were added to the plates for capture by the plate-bound mouse CD47-Fc. The PD-1-Fc-4-1BBL chimeric protein was used as a negative control. Then, mouse 4-1BB-His was added to the plate for capture by any chimeric protein, which was captured in turn by the mouse CD47-Fc protein. An anti-His-biotin and streptavidin-SULFO-TAG were used for detection. Binding was assayed using an electrochemiluminescence (ECL) readout.

T2 sequence (P50284 31-415 limits assumed): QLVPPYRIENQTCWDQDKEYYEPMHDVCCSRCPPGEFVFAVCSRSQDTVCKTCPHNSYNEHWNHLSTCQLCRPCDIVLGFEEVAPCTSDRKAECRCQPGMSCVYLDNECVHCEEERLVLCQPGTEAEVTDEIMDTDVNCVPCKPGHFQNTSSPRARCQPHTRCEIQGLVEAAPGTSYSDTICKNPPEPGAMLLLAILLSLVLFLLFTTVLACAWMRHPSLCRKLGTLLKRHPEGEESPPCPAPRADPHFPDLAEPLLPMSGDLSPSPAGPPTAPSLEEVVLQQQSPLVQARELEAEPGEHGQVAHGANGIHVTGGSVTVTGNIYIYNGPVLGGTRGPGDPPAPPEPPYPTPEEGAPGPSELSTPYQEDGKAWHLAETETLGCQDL

B1: mouse TIGIT-Fc-LIGHT chimeric protein (Fc fusion)
chain: TIDTKRNISAEEGGSVILQCHFSSDTAEVTQVDWKQQDQLLAIYSVDLGWHVASVFSDRVVPGPSLGLTFQSLTMNDTGEYFCTYHTYPGGIYKGRIFLKVQESSDDRNGLAQFQTAPLGVPRDCGCKPCICTVPEVSSVFIFPPKPKDVLTITLTPKVTCVVVDISKDDPEVQFSWFVDDVEVHTAQTQPREEQFNSTFRSVSELPIMHQDWLNGKEFKCRVNSAAFPAPIEKTISKTKGRPKAPQVYTIPPPKEQMAKDKVSLTCMITDFFPEDITVEWQWNGQPAENYKNTQPIMDTDGSYFVYSKLNVQKSNWEAGNTFTCSVLHEGLHNHHTEKSLSHSPGKIEGRMDLHQRLGDIVAHLPDGGKGSWEKLIQDQRSHQANPAAHLTGANASLIGIGGPLLWETRLGLAFLRGLTYHDGALVTMEPGYYYVYSKVQLSGVGCPQGLANGLPITHGLYKRTSRYPKELELLVSRRSPCGRANSSRVWWDSSFLGGVVHLEAGEEVVVRVPGNRLVRPRDGTRSYFGAFMV
notes: also called mTIGIT-Fc-LIGHT; murine TIGIT-Fc-LIGHT chimeric protein
For the molecule B1, the binding result with murine recombinant HVEM, in the assay with CHOK1/mLTβR and with murine recombinant LTβR was “binds” in each case. Further, the “EC50 (read off the curve)” value with anti-H&L is approximately 4 nM; in the assay with murine recombinant PVR it was approximately 5 nM.

B2: mouse SIRPα-Fc-4-1BBL chimeric protein (Fc fusion)
chain: KELKVTQPEKSVSVAAGDSTVLNCTLTSLLPVGPIKWYRGVGQSRLLIYSFTGEHFPRVTNVSDATKRNNMDFSIRISNVTPEDAGTYYCVKFQKGPSEPDTEIQSGGGTEVYVLAKPSPPEVSGPADRGIPDQKVNFTCKSHGFSPRNITLKWFKDGQELHHLETTVNPSGKNVSYNISSTVRVVLNSMDVHSKVICEVAHITLDRSPLRGIANLSNFIRVSPTVKVTQQSPTSMNQVNLTCRAERFYPEDLQLIWLENGNVSRNDTPKNLTKNTDGTYNYTSLFLVNSSAHREDVVFTCQVKHDQQPAITRNHTVLGLAHSSDQGSMQTFPGNNATHNWNVPRDCGCKPCICTVPEVSSVFIFPPKPKDVLTITLTPKVTCVVVDISKDDPEVQFSWFVDDVEVHTAQTQPREEQFNSTFRSVSELPIMHQDWLNGKEFKCRVNSAAFPAPIEKTISKTKGRPKAPQVYTIPPPKEQMAKDKVSLTCMITDFFPEDITVEWQWNGQPAENYKNTQPIMDTDGSYFVYSKLNVQKSNWEAGNTFTCSVLHEGLHNHHTEKSLSHSPGIIEGRMDRTEPRPALTITTSPNLGTRENNADQVTPVSHIGCPNTTQQGSPVFAKLLAKNQASLCNTTLNWHSQDGAGSSYLSQGLRYEEDKKELVVDSPGLYYVFLELKLSPTFTNTGHKVQGWVSLVLQAKPQVDDFDNLALTVELFPCSMENKLVDRSWSQLLLLKAGHRLSVGLRAYLHGAQDAYRDWELSYPNTTSFGLFLVKPDNPWE
notes: also called mSIRPα-Fc-4-1BBL
Consider B2, for which the EC50 in the assay with mouse 4-1BB-His came out at 0.674 nM; with mouse CD47-His, 0.609 nM; with mouse CD47-Fc, 22.4 nM.
